Data on three variants can be found in IntAct's records for PubMed 15509585.

B1: Thioredoxin-like protein slr1139 (Synechocystis sp. (strain PCC 6803 / Kazusa)), P73263 (parent)
chain: MSLLEITDAEFEQETQGQTKPVLVYFWASWCGPCRLMAPAIQAIAKDYGDKLKVLKLEVDPNPAAVAQCKVEGVPALRLFKNNELVMTHEGAIAKPKLLELLKEELDFI
partner: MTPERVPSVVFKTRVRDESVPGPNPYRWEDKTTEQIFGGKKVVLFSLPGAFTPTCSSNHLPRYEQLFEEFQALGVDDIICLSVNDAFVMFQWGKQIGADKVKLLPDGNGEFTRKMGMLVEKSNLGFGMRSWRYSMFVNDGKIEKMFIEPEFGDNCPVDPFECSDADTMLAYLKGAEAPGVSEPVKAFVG
B2: Thioredoxin-like protein slr1139 (Synechocystis sp. (strain PCC 6803 / Kazusa)), P73263 (parent)
chain: B1 chain
partner: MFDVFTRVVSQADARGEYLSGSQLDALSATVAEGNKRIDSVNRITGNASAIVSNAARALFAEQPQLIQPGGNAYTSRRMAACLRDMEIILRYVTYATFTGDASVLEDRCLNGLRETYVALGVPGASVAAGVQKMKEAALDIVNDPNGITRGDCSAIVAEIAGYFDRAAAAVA
B3: Thioredoxin-like protein slr1139 (Synechocystis sp. (strain PCC 6803 / Kazusa)), P73263 (parent)
chain: B1 chain
partner: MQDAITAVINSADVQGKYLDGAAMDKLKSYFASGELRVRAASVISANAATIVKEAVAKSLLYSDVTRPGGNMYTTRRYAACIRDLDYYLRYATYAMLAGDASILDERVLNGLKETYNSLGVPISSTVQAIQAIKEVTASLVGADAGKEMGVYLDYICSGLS

In one assay the parent is B1. The settings on record: with prx5_syny3 prx5, P73728.
Regarding C34S, the “effect of a mutation on the interaction” value is on record as “increasing interaction”.

In another assay the parent is B2. The settings on record: with phcb_syny3 cpcB.
Consider C34S, for which the “effect of a mutation on the interaction” value is on record as “increasing interaction”.

A further assay covers variants of B3. To be noted: with apcb_syny3 apcB.
On to C34S, for which the “effect of a mutation on the interaction” value is recorded as “increasing interaction”.
